Laboratory results taken from article PMC9381089 (Molecular Cancer Therapeutics, 2022).

Experiments:
[1] = target: cynomolgus monkey SEZ6, ectopically expressed on 293T cells (Macaca fascicularis, UniProt A0A2K5WPJ4); assay: flow cytometry on cells
[2] = target: murine SEZ6, ectopically expressed on 293T cells (Mus musculus (Mouse)., UniProt Q7TSK2); assay: flow cytometry on cells
Chain of murine SEZ6, ectopically expressed on 293T cells (Q7TSK2 20-991): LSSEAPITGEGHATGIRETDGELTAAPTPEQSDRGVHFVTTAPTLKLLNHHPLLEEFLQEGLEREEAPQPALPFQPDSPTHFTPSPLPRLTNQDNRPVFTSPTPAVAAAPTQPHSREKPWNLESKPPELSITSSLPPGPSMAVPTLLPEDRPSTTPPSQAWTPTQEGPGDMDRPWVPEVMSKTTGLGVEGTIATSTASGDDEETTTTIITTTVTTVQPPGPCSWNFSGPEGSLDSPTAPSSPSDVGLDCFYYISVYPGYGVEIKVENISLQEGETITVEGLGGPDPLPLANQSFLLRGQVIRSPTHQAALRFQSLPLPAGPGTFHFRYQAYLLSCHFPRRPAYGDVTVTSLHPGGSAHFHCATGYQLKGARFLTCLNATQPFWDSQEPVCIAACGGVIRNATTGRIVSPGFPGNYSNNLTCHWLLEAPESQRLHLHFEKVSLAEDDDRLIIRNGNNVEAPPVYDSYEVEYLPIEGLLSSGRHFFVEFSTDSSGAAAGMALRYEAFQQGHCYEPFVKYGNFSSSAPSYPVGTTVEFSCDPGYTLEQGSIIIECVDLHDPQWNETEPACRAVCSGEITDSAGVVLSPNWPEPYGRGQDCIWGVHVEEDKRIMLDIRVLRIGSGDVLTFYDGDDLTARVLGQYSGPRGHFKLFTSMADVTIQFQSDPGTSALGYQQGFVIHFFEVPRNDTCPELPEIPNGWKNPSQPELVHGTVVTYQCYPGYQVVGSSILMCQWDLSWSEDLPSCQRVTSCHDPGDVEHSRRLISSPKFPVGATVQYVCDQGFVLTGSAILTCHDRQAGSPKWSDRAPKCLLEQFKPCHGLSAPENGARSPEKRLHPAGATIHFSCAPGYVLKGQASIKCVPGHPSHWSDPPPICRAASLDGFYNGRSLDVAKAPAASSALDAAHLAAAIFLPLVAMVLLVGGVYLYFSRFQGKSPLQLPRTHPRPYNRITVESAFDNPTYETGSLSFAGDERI

B1: ABBV-011 (SC17 conjugated to the calicheamicin linker drug LD19.10) (antibody, V domains shown)
VH: EVQLVQSGAEVKKPGESLKISCKGSGYSFTSSWINWVRQMPGKGLEWMGRIYPGEGDTNYSGNFEGQVTISADKSISTAYLQWSSLKASDTAMYYCTRGLVMDYWGQGTLVTVSS
VL: EIVLTQSPATLSLSPGERATLSCRASQSVDYNGISYMHWYQQKPGQAPRLLIYAASNVQSGIPARFSGSGSGTDFTLTISSLEPEDFAVYYCQQSIEDPPTFGGGTKVEIK
binding result [1]: binds | binding result [2]: binds

B2: SC17, humanized anti-SEZ6 monoclonal antibody (antibody, V domains shown)
VH: B1 VH
VL: B1 VL
binding result [1]: binds
